Reference: doi:10.1101/2025.10.22.684016

Molecular target: mCherry-TurboID-CD9
Assay: proximity labelling + proximity ligation

Gabrb3 (from UniProt P63080 26-473) (natural protein)
PLA puncta (Streptavidin–Gabrb3), APP-TB mice: 1530 puncta | PLA puncta (Streptavidin–Gabrb3), WT-TB mice: 1500 puncta

Ncam1 (from UniProt P13595 20-1115) (natural protein)
PLA puncta (Streptavidin–Ncam1), APP-TB mice: 1790 puncta | PLA puncta (Streptavidin–Ncam1), WT-TB mice: 1260 puncta

B1: Gad1 (enzyme)
chain: MASSTPSPATSSNAGADPNTTNLRPTTYDTWCGVAHGCTRKLGLKICGFLQRTNSLEEKSRLVSAFRERQSSKNLLSCENSDQGARFRRTETDFSNLFAQDLLPAKNGEEQTAQFLLEVVDILLNYVRKTFDRSTKVLDFHHPHQLLEGMEGFNLELSDHPESLEQILVDCRDTLKYGVRTGHPRFFNQLSTGLDIIGLAGEWLTSTANTNMFTYEIAPVFVLMEQITLKKMREIVGWSNKDGDGIFSPGGAISNMYSIMAARYKYFPEVKTKGMAAVPKLVLFTSEHSHYSIKKAGAALGFGTDNVILIKCNERGKIIPADLEAKILDAKQKGYVPLYVNATAGTTVYGAFDPIQEIADICEKYNLWLHVDAAWGGGLLMSRKHRHKLSGIERANSVTWNPHKMMGVLLQCSAILVKEKGILQGCNQMCAGYLFQPDKQYDVSYDTGDKAIQCGRHVDIFKFWLMWKAKGTVGFENQINKCLELADYLYAKIKNREEFEMVFDGEPEHTNVCFWYIPQSLRGVPDSPERREKLHRVAPKIKALMMESGTTMVGYQPQGDKANFFRMVISNPAATQSDIDFLIEEIERLGQDL
PLA puncta (Streptavidin–Gad1), APP-TB mice: 2120 puncta
